Data: US5662885A, “Peptide derived radionuclide chelators” (Resolution Pharmaceuticals Inc., priority 1994, dated 1997)
Starred links: 1 amine or outer side, 2 acyl side, 3 side chain; linkers in the order of their positions; H or OH if unused. Non-standard residues stand in square brackets, D forms with d. No end group written: not given here. *: point of attachment. Cys(Acm) = CC(=O)NCSC[C@H](N[*:1])C(=O)[*:2]; Me2Gly = CN(C)CC(=O)*

Columns and labels:
[1] = system: zymosan-induced focal inflammation in left hindleg of rats; settings: rat, in vivo, iv
Procedure: (§1) Rat inflammation studies were performed as follows. 2 male Wistar rats (Charles River, 200-250 g) were injected intramuscularly with (25 mg) zymosan, a yeast cell wall suspension, into their left hindlegs 24 hours before imaging. Focal inflammation in the leg was visually detectable after 1 day.
(§2) The rats were anaesthetized with somnitol (40 to 50 mg/kg), and the labeled conjugate solution (200 μL) was injected intravenously via the tail vein. Serial whole-body scintigrams were acquired at 30 minutes. The rats were then killed with anaesthesia overdose and samples of organs, urine, blood, inflamed muscle (left leg) and non-inflamed muscle (right leg) and inflammatory exudate (fluid) were weighed and counted in either a well-type gamma counter or in a gamma dose calibrator depending upon the organ. The dose calculations were made based on the assumption that the blood volume constituted 8% of body weight. The results of the conjugates represented in the table below are averages for two rats and are corrected for the residual dose in the tail.

[2] = system: zymosan-induced focal inflammation in left hindleg of rats; assay: Rat inflammation study: in vivo imaging and biodistribution of Tc-99m labeled conjugates; settings: i.v. tail vein, 30 minutes, average of two rats; for Inflam:Uninfl (target to background ratio, inflamed:uninflamed muscle): zymosan-inflamed left leg vs right leg muscle
Procedure: as §1, §2

N,N-dimethylGly-Ser-Cys(Acm)-Gly-Thr-Lys-Pro-Pro-Arg-OH ([Me2Gly]S[Cys(Acm)]GTKPPR-OH; also: 99mTc label via N,N-dimethylGly-Ser-Cys(Acm) chelator) [N,N-dimethylGly-Ser-Cys(Acm)-GTKPPR-OH]
GI Tract (% dose) [1]: 2.8 % dose | Liver (% dose) [1]: 2.4 % dose | Urine (% dose) [1]: 63.5 % dose | Fluid:Blood (inflammatory exudate:blood) [2]: 1.9 | Inflam:Uninfl (target to background ratio, inflamed:uninflamed muscle) [2]: 5.3

N,N-dimethylGly-Thr-Cys(Acm)-Gly-Thr-Lys-Pro-Pro-Arg ([Me2Gly]T[Cys(Acm)]GTKPPR; also: 99mTc label via N,N-dimethylGly/Cys(Acm) chelator) [N,N-dimethylGly-Thr-Cys(Acm)-GTKPPR-OH]
GI Tract (% dose) [1]: 2.5 % dose | Liver (% dose) [1]: 2.4 % dose | Urine (% dose) [1]: 68.5 % dose | Fluid:Blood (inflammatory exudate:blood) [2]: 1.6 | Inflam:Uninfl (target to background ratio, inflamed:uninflamed muscle) [2]: 4.6
